Substitutions are numbered along the chain they refer to.
What was measured:
Experiment in all cases: EMSA; little to no detectable; EMSA: PBS pH 7.4 (or KH2PO4/10 mM MgCl2 pH 6.0), 3.6 or 5 uM protein, 25 uM nt DNA, 37 C 15 min per strand, 0.8% agarose 1x TBE; cryo-EM: 20 mM KH2PO4 (Results: 10 mM), 10 mM MgCl2 pH 6.0, 37 C; native MS: 100 mM ammonium acetate pH 7, 37 C
Settings in all cases: protein: recombinant, tags: N-terminal 6His vector tag (20 aa) retained, chain copies: 10
[1] = biological target: T1, LiRecT K206A/R210A (Listeria innocua CLIP 11262, UniProt Q92FL9 1-271, K206A;R210A)
T1 sequence: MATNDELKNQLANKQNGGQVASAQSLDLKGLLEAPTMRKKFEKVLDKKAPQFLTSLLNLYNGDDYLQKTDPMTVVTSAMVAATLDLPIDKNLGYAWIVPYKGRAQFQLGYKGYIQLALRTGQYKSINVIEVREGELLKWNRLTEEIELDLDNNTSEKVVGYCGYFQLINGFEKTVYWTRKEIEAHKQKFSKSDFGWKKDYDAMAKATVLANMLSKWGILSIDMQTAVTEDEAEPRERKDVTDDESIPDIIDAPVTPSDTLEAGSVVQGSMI

[2] = biological target: T2, LiRecT K206E (Listeria innocua CLIP 11262, UniProt Q92FL9 1-271, K206E)
T2 sequence: T1 sequence with A206E, A210R

[3] = biological target: T3, LiRecT R210A/K215A (Listeria innocua CLIP 11262, UniProt Q92FL9 1-271, R210A;K215A)
T3 sequence: T1 sequence with A206K, K215A

[4] = biological target: T4, LiRecT K111A/K215A (Listeria innocua CLIP 11262, UniProt Q92FL9 1-271, K111A;K215A)
T4 sequence: T1 sequence with K111A, A206K, A210R, K215A

[5] = biological target: T5, LiRecT K206A/K215A (Listeria innocua CLIP 11262, UniProt Q92FL9 1-271, K206A;K215A)
T5 sequence: T1 sequence with A210R, K215A

[6] = label: 5'-Cy3;5'-Cy5, 49 bp, 1 nt 5' overhang at each end

Measured: binding result

CCATCCGCAAAAATCGAGCTATGCAGGGCGATTCTGCTCTAAGCCATCCG (ssDNA) [Cy5-50mer]
no binding: [1]; label: 5'-Cy5, single strand | [2]; label: 5'-Cy5, single strand | [3]; label: 5'-Cy5, single strand | [4]; label: 5'-Cy5, single strand | [5]; label: 5'-Cy5, single strand

B1: 50-mer duplex intermediate (sequential addition) (dsDNA)
DNA 1: GCGGATGGCTTAGAGCAGAATCGCCCTGCATAGCTCGATTTTTGCGGATG
DNA 2: CCATCCGCAAAAATCGAGCTATGCAGGGCGATTCTGCTCTAAGCCATCCG
no binding: [1]; [6] | [2]; [6] | [3]; [6] | [4]; [6] | [5]; [6]

GCGGATGGCTTAGAGCAGAATCGCCCTGCATAGCTCGATTTTTGCGGATG (ssDNA) [Cy3-50mer]
no binding: [1]; label: 5'-Cy3, single strand | [2]; label: 5'-Cy3, single strand | [3]; label: 5'-Cy3, single strand | [4]; label: 5'-Cy3, single strand | [5]; label: 5'-Cy3, single strand
